This is an account of results in publication doi:10.1101/2020.03.14.988345 (bioRxiv, 2020).

The target of the assay is His-SP (RBD) (SARS-CoV-2, UniProt P0DTC2 319-541). The experiment in a line: SPR. For orientation: Surface plasmon resonance follows binding to a sensor surface in real time, without labels.

A word on the Kd: it is a measure of binding affinity in units of concentration.

B1: His-CD147 (receptor)
chain: AAGTVFTTVEDLGSKILLTCSLNDSATEVTGHRWLKGGVVLKEDALPGQKTEFKVDSDDQWGEYSCVFLPEPMGTANIQLHGPPRVKAVKSSEHINEGETAMLVCKSESVPPVTDWAWYKITDSEDKALMNGSESRFFVSSSQGRSELHIENLNMEADPGQYRCNGTSSKGSDQAIITLRVRSHLAAL
The molecule B1 yielded a Kd of 185 nM.
